The numbers were not newly measured in PMC4589137, which cites them from elsewhere.

The series addresses α-melanocyte stimulating hormone (α-MSH) (UniProt P01189).

For orientation: Kd means a measure of binding affinity in units of concentration. As to “melanocortin 1 receptor (MC1R) (from UniProt Q01727)”, the Kd was 0.4 nM.
